In PMC9506717:

Settings: glycan lost

Substance | other: Spike incorporation into virions | expression_or_secretion | other: viral entry
Spike: N61/603/657 triple mutant | decreases |  | 
Spike: N61/603/657Q | decreases | no change | 
Spike: N61/657Q | decreases | no change | 
Spike: N61Q | decreases | no change | 
Spike: N61Q/N657Q | decreases |  | 
Spike: N603/657Q |  | no change | 
Spike: N603Q |  | no change | 
Spike: N616Q |  | no change | decreases
Spike: N657Q |  | no change | 
Spike: N801Q | decreases | no change | 
